The source of these data is patent US20260152567A1 (CSPC MEGALITH BIOPHARMACEUTICAL, published 2026).

Assay [1] concerns the target T1, recombinant human CD73 protein (human, UniProt P21589 27-547).
T1 construct: Bought soluble protein; The background says that CD73 forms a homodimer; also called soluble CD73; free CD73 protein
T1 sequence (looked up): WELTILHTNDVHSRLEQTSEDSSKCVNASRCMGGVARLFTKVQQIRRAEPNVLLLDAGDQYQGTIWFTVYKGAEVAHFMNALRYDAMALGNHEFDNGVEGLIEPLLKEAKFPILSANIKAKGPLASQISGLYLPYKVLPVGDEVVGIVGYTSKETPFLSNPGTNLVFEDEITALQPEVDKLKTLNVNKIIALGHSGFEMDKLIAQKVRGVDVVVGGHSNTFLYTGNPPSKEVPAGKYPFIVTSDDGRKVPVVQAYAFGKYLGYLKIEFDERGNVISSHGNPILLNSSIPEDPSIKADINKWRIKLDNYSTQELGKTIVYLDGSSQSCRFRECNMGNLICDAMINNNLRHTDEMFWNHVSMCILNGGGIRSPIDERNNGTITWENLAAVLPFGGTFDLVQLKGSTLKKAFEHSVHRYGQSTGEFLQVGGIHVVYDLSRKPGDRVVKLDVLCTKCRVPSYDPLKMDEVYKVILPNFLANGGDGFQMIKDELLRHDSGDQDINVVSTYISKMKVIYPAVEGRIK
Description: BLI (Fortebio), human CD73 on HIS1K biosensors, antibody as analyte. Here is the method: The humanized antibody VH and VL were separately constructed into eukaryotic expression vectors containing the hIgG1-kappa constant region with L234A, L235A, P329A and P331S mutations (abbreviated as hIgG1 in the present application). The affinity of all humanized antibodies was assayed in this example. Human CD73 protein was immobilized onto HIS1K biosensors to achieve a binding response threshold of 0.3 nm. After a 120-second baseline step, the sensors were separately immersed in anti-CD73 antibody analytes diluted in a gradient with a 0.02% PBST buffer (each antibody was diluted in a 2-fold gradient with an initial concentration of 25 nM, resulting in 7 concentration gradients). The times for the ligand-analyte binding and dissociation were 120 s and 300 s, respectively. The data of the antigen-antibody affinity were calculated by regression according to the binding curves using an analysis software.
Background: Biolayer interferometry detects binding as a change in optical thickness at a sensor tip.

Assay [2] deals with T2, cynomolgus monkey CD73 protein (cynomolgus monkey, UniProt A0A2K5V5U7 27-547).
T2 construct: construct not described
T2 sequence: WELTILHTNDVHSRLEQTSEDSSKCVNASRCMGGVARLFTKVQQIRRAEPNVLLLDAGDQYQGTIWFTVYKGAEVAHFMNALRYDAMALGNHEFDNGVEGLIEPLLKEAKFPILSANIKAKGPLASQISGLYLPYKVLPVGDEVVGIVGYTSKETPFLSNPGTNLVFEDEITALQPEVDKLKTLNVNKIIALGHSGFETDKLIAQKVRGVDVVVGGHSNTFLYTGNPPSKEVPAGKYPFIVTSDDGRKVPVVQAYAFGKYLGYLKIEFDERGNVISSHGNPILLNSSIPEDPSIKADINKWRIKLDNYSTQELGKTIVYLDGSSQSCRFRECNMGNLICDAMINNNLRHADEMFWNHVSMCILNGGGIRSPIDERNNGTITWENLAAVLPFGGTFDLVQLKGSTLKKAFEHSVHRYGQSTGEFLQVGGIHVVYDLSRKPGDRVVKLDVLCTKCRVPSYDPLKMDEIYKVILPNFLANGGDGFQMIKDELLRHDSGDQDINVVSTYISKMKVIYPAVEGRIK
The experiment in a line: BLI (Fortebio), cynomolgus CD73 on HIS1K biosensors, antibody as analyte. Here is the method:
In this example, the cross-binding ability of the exemplary humanized anti-CD73 antibodies of the present application to cynomolgus monkey CD73 was assayed by a Fortebio experiment. The specific implementation steps included immobilizing the cynomolgus monkey CD73 protein onto HIS1K biosensors. […] The times for the ligand-analyte binding and dissociation were 120 s and 300 s, respectively. The data of the antigen-antibody affinity were calculated by regression according to the binding curves using an analysis software.

The target in assay [3] is T1, recombinant human CD73 protein. The experiment in a line: ELISA, plate coated with recombinant human CD73 at 1 µg/mL. The procedure: The obtained eukaryotic expression vectors were transiently transferred into HEK293 cells, and the cells were then cultured for 6 days. The culture supernatants were harvested and purified by a ProteinA column to obtain the target antibodies, which were named 7C3C2-hIgG1 and 1F2F9-hIgG1, respectively. The affinity of the antibodies for the recombinant human CD73 protein (as described in Example 1) was determined using ELISA method. A elisa plate was coated with the recombinant human CD73 protein at a concentration of 1 μg/mL and washed 3 times with a PBST buffer. Then, the plate was blocked with a PBS buffer containing 2% BSA at 37° C. for 2 h and washed 3 times with a PBST buffer. 5-fold gradient dilutions (0-133.3 nM) of the test antibodies were added, and the mixture was incubated at 37° C. for 2 h. The plate was further washed 3 times with a PBST buffer. A horseradish peroxidase-labeled secondary antibody was added, and the mixture was incubated at 37° C. for 1 h. The plate was then washed 3 times with a PBST buffer. Chromogenic reaction was performed, and the absorbance values were read after the reaction was terminated.

The target in assay [4] is T3, human CD73 on the cell surface (MDA-MB-231 and SKOV3 tumor cells) (human, UniProt P21589 27-549).
T3 construct: whole, on cells; also called cell surface CD73; CD73 on the surface of human tumor cells
T3 sequence (looked up): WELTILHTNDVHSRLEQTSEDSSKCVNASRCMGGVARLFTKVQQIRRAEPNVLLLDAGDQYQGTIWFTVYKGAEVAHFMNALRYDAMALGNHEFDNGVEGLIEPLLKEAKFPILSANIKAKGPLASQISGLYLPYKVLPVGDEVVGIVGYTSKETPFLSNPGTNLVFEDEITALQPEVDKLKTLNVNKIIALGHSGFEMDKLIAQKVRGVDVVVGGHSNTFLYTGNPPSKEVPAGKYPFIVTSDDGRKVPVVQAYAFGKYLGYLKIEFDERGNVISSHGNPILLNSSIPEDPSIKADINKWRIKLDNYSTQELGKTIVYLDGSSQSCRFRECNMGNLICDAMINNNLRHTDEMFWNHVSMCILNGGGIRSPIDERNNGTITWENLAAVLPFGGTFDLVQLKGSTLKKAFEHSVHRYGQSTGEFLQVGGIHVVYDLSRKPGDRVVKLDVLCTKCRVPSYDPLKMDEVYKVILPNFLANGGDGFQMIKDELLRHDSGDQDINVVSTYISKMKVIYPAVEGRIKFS
Description: flow cytometry on SK-OV-3 cells. Here is the method: (§1) In this example, the exemplary antibodies of the present application were compared with anti-CD73 antibodies described in other patent applications. Antibodies MEDI9447 and Hu101-28 (with CDR sequences from PCT patent applications WO 2016/075099 and WO 2018/137598, respectively) were cloned into eukaryotic expression vectors containing the hIgG1-kappa constant region. The binding ability of the humanized antibodies Hab7C3C2.5 and Hab1F2F9.15 to cell surface CD73 was assessed using tumor cell lines MDA-MB-231 and SKOV3 which endogenously express human CD73 on the cell surface. The cells were seeded in a 96-well plate at a density of 2×10⁶ cells/mL, with 100 μL per well. 4-fold gradient dilutions (0-100 nM) of the antibodies were added, and the mixture was incubated at 4° C. for 1 h. A goat anti-human secondary antibody was added, and the mixture was incubated at 4° C. in the dark for 50 min for labeling. The fluorescence intensity of the cells was then measured by a flow cytometer.
Background: In flow cytometry, cells or beads pass a laser one at a time.

Assay [5] addresses T3, human CD73 on the cell surface …. The experiment in a line: flow cytometry on MDA-MB-231 cells. The procedure:
as §1

The term Kd denotes the equilibrium constant for the complex coming apart. What is called koff is a measure of how fast the partners let go of each other. The kon is the rate constant with which the complex forms. In general, EC50 refers to the concentration at which the effect is half-maximal.

B1: Hab1F2F9.12 (antibody, human IgG1, kappa, L234A L235A, V domains shown)
VH: QVQLVQSGAEVKKPGASVKVSCKASGYTFTSYWMHWVRQAPGQRLEWMGNINPSNGGTKYNEKFQGRVTITVDTSASTAYMELSSLRSEDTAVYYCARRDYGSPSYWGQGTTVTVSS
VL: DIQMTQSPSSLSASVGDRVTITCKASQDINSYLTWFQQKPGKAPKSLIYRTNILLDGVPSRFSGSGSGTDYTLTISSLQPEDFATYYCLQYHEFPVTFGGGTKLEIKR
notes: Humanized 1F2F9; also called Huab1F2F9.12
Consider B1, for which, in assay [1], the dissociation constant Kd is 720 pM, the koff stood at 0.00133 s⁻¹ and the kon is 1.85e+06 M⁻¹ s⁻¹. In assay [2], this molecule returned a Kd of 681 pM, a koff of 0.00152 s⁻¹ and a kon of 2.22e+06 M⁻¹ s⁻¹.

B2: 1F2F9-hIgG1 (antibody, V domains shown)
VH: QVQLQQPGTELVKPGASVKLSCKASGYTFTSYWMHWVKQRPGHGLEWIGNINPSNGGTKYNEKFKSKATLTVDKSSSTAYLQLSSLTSEDSAVYYCARRDYGSPSYWGQGTLVTVSA
VL: DIKMTQSPSSIYASLGERVTITCKASQDINSYLTWFQQKVGKSPKTLIYRTNILLDGVPSRFSGSGSGQDYSLTISSLDYEDMGIYHCLQYHEFPVTFGAGTKLELKR
notes: Human-mouse chimeric antibody, expressed in HEK293, Protein A purified; also called 1F2F9 chimeric antibody
For B2, the EC50 in assay [3] was 28 pM.

B3: 7C3C2-hIgG1 (antibody, V domains shown)
VH: QVQLQQSGPELVKPGASVKLSCKASGYTFTSYDINWVKQRPGQGLEWIGWIYPRDGFTKYNEKFKGKATLTVDTSSSTAYMELHSLTSEDSAVYFCARKEGYRGDWYFDVWGTGTTVTVSS
VL: DIQMTQSPASLSASVGETVTITCRASGNVHNYLAWYQQKQGKSPQLLVYNAKTLADGVPSRFSGSGSGTQYSLKINSLQPEDFGSYYCQHFWSTPWTFGGGTELEIKR
notes: Human-mouse chimeric antibody, expressed in HEK293, Protein A purified; also called 7C3C2 chimeric antibody
As to B3, in assay [3], the 50% effective concentration (EC50) stood at 17 pM.

B4: MEDI9447 (antibody, V domains shown)
VH: EVQLLESGGGLVQPGGSLRLSCAASGFTFSSYAYSWVRQAPGKGLEWVSAISGSGGRTYYADSVKGRFTISRDNSKNTLYLQMNSLRAEDTAVYYCARLGYGRVDEWGRGTLVTVSS
VL: QSVLTQPPSASGTPGQRVTISCSGSLSNIGRNPVNWYQQLPGTAPKLLIYLDNLRLSGVPDRFSGSKSGTSASLAISGLQSEDEADYYCATWDDSHPGWTFGGGTKLTVLG
B4: the EC50 worked out at 170 pM in assay [4] and 490 pM in assay [5].

B5: Hab7C3C2.9 (antibody, human IgG1, kappa, L234A L235A, V domains shown)
VH: QVQLVQSGAEVKKPGASVKVSCKASGYTFTSYDINWVRQATGQGLEWMGWIYPRDGFTKYAQKFQGRVTITVNTSISTAYMELSSLRSEDTAVYYCARKEGYRGDWYFDVWGQGTTVTVSS
VL: DIQMTQSPSSLSASVGDRVTITCRASGNVHNYLAWYQQKPGKAPKLLLYNAKTLASGVPSRFSGSGSGTDYTLTISSLQPEDFATYYCQHFWSTPWTFGGGTELEIKR
notes: Humanized 7C3C2; also called Huab7C3C.9
As to B5, in assay [1], the Kd came out at 1030 pM, the koff worked out at 0.00381 s⁻¹ and the kon was determined as 3.7e+06 M⁻¹ s⁻¹. In assay [2], this molecule registered a Kd of 852 pM, a dissociation rate constant (koff) of 0.00388 s⁻¹ and a kon of 4.56e+06 M⁻¹ s⁻¹.
